Assay results from the Human Domainome abundance scans (Beltran et al. 2025).
± gives the uncertainty stated by the source.

B1: DnaJ homolog subfamily C member 2, residues 451 to 503; numbered along this chain, Q99543 (parent)
chain: SKNWSEDDLQLLIKAVNLFPAGTNSRWEVIANYMNIHSSSGVKRTAKDVIGKA

Variants of: B1
Assay: abundance fitness (aPCA) (normalised: wild type 0, dead -1); higher = more abundant; growth selection in yeast, the domain comes from the species named
Settings: Homo sapiens

| Variant | abundance fitness |
| --- | --- |
| SKNWSEDDLQLLIKAVNLFPAGTNSRWEVIANYMNIHSSSGVKRTAKDVIGVA [K52V] | -0.181 ± 0.087 |
| SKNWSEDDLQLLIKAVNLFPAGTNSRWEVIANYMNIHSSSGVKRTAKDVIGRA [K52R] | -0.119 ± 0.076 |
| SKNWSEDDLQLLIKAVNLFPAGTNSRWEVIANYMNIHSSSGVKRTAKDVIGLA [K52L] | -0.385 ± 0.073 |
| SKNWSEDDLQLLIKAVNLFPAGTNSRWEVIANYMNIHSSSGVKRTAKDVIGCA [K52C] | -0.033 ± 0.097 |
| SKNWSEDDLQLLIKAVNLFPAGTNSRWEVIANYMNIHSSSGVKRTAKDVIGFA [K52F] | -0.329 ± 0.11 |
| SKNWSEDDLQLLIKAVNLFPAGTNSRWEVIANYMNIHSSSGVKRTAKDVIGQA [K52Q] | -0.012 ± 0.12 |
| SKNWSEDDLQLLIKAVNLFPAGTNSRWEVIANYMNIHSSSGVKRTAKDVIGHA [K52H] | -0.126 ± 0.13 |
| SKNWSEDDLQLLIKAVNLFPAGTNSRWEVIANYMNIHSSSGVKRTAKDVIGIA [K52I] | -0.094 ± 0.11 |
| SKNWSEDDLQLLIKAVNLFPAGTNSRWEVIANYMNIHSSSGVKRTAKDVIGGA [K52G] | -0.006 ± 0.074 |
| SKNWSEDDLQLLIKAVNLFPAGTNSRWEVIANYMNIHSSSGVKRTAKDVIGEA [K52E] | -0.006 ± 0.12 |
| SKNWSEDDLQLLIKAVNLFPAGTNSRWEVIANYMNIHSSSGVKRTAKDVIGWA [K52W] | -0.018 ± 0.12 |
| SKNWSEDDLQLLIKAVNLFPAGTNSRWEVIANYMNIHSSSGVKRTAKDVIGTA [K52T] | -0.197 ± 0.09 |
| SKNWSEDDLQLLIKAVNLFPAGTNSRWEVIANYMNIHSSSGVKRTAKDVIGDA [K52D] | -0.666 ± 0.11 |
| SKNWSEDDLQLLIKAVNLFPAGTNSRWEVIANYMNIHSSSGVKRTAKDVIGSA [K52S] | -0.252 ± 0.073 |
| SKNWSEDDLQLLIKAVNLFPAGTNSRWEVIANYMNIHSSSGVKRTASDVIGKA [K47S] | 0.033 ± 0.075 |
| SKNWSEDDLQLLIKAVNLFPAGTNSRWEVIANYMNIHSSSGVKRTARDVIGKA [K47R] | -0.056 ± 0.065 |
| SKNWSEDDLQLLIKAVNLFPAGTNSRWEVIANYMNIHSSSGVKRTAVDVIGKA [K47V] | -0.095 ± 0.072 |
| SKNWSEDDLQLLIKAVNLFPAGTNSRWEVIANYMNIHSSSGVKRTAWDVIGKA [K47W] | -0.266 ± 0.089 |
| SKNWSEDDLQLLIKAVNLFPAGTNSRWEVIANYMNIHSSSGVKRTAYDVIGKA [K47Y] | -0.212 ± 0.11 |
| SKNWSEDDLQLLIKAVNLFPAGTNSRWEVIANYMNIHSSSGVKRTATDVIGKA [K47T] | 0.08 ± 0.091 |
| SKNWSEDDLQLLIKAVNLFPAGTNSRWEVIANYMNIHSSSGVKRTAKDVIGKT [A53T] | -0.254 ± 0.19 |
| SKNWSEDDLQLLIKAVNLFPAGTNSRWEVIANYMNIHSSSGVKRTAKDVIGKS [A53S] | -0.001 ± 0.14 |
| SKNWSEDDLQLLIKAVNLFPAGTNSRWEVIANYMNIHSSSGVKRTAKDVIGKD [A53D] | -0.08 ± 0.32 |
| SKNWSEDDLQLLIKAVNLFPAGTNSRWEVIANYMNIHSSSGVKRTAKDVIGKY [A53Y] | -0.629 ± 0.45 |
| SKNWSEDDLQLLIKAVNLFPAGTNSRWEVIANYMNIHSSSGVKRTAKDVIGKV [A53V] | -0.035 ± 0.29 |

| Variant | abundance fitness |
| --- | --- |
| SKNWSEDDLQLLIKAVNLFPAGTNSRWEVIANYMNIHSSSGVKRTAKDVIGKC [A53C] | -0.188 ± 0.25 |
| SKNWSEDDLQLLIKAVNLFPAGTNSRWEVIANYMNIHSSSGVKRTAKDVIGKR [A53R] | -0.498 ± 0.32 |
| SKNWSEDDLQLLIKAVNLFPAGTNSRWEVIANYMNIHSSSGVKRTAKDVIGKH [A53H] | -0.233 ± 0.25 |
| SKNWSEDDLQLLIKAVNLFPAGTNSRWEVIANYMNIHSSSGVKRTAKDVIGKQ [A53Q] | -0.081 ± 0.22 |
| SKNWSEDDLQLLIKAVNLFPAGTNSRWEVIANYMNIHSSSGVKRTAKDVIGKP [A53P] | -0.775 ± 0.46 |
| SKNWSEDDLQLLIKAVNLFPAGTNSRWEVIANYMNIHSSSGVKRTAKDVIGKG [A53G] | -0.112 ± 0.21 |
| SKNWSEDDLQLLIKAVNLFPAGTNSRWEVIANYMNIHSSSGVKRTAKDVIGKL [A53L] | -0.634 ± 0.24 |
| SKNWSEDDLQLLIKAVNLFPAGTNSRWEVIANYMNIHSSSGVKRTAKWVIGKA [D48W] | -0.845 ± 0.1 |
| SKNWSEDDLQLLIKAVNLFPAGTNSRWEVIANYMNIHSSSGVKRTAKKVIGKA [D48K] | -0.973 ± 0.16 |
| SKNWSEDDLQLLIKAVNLFPAGTNSRWEVIANYMNIHSSSGVKRTAKQVIGKA [D48Q] | -0.105 ± 0.1 |
| SKNWSEDDLQLLIKAVNLFPAGTNSRWEVIANYMNIHSSSGVKRTAKMVIGKA [D48M] | -0.396 ± 0.095 |
| SKNWSEDDLQLLIKAVNLFPAGTNSRWEVIANYMNIHSSSGVKRTAKFVIGKA [D48F] | -1.06 ± 0.18 |
| SKNWSEDDLQLLIKAVNLFPAGTNSRWEVIANYMNIHSSSGVKRTAKRVIGKA [D48R] | -0.708 ± 0.066 |
| SKNWSEDDLQLLIKAVNLFPAGTNSRWEVIANYMNIHSSSGVKRTAKLVIGKA [D48L] | -0.838 ± 0.085 |
| SKNWSEDDLQLLIKAVNLFPAGTNSRWEVIANYMNIHSSSGVKRTAKGVIGKA [D48G] | -0.554 ± 0.067 |
| SKNWSEDDLQLLIKAVNLFPAGTNSRWEVIANYMNIHSSSGVKRTAKEVIGKA [D48E] | 0.042 ± 0.084 |
| SKNWSEDDLQLLIKAVNLFPAGTNSRWEVIANYMNIHSSSGVKRTAKTVIGKA [D48T] | -0.563 ± 0.1 |
| SKNWSEDDLQLLIKAVNLFPAGTNSRWEVIANYMNIHSSSGVKRTAKSVIGKA [D48S] | -0.212 ± 0.067 |
| SKNWSEDDLQLLIKAVNLFPAGTNSRWEVIANYMNIHSSSGVKRTAKAVIGKA [D48A] | -0.262 ± 0.071 |
| SKNWSEDDLQLLIKAVNLFPAGTNSRWEVIANYMNIHSSSGVKRTAKCVIGKA [D48C] | -0.393 ± 0.1 |
| SKNWSEDDLQLLIKAVNLFPAGTNSRWEVIANYMNIHSSSGVKRTAKYVIGKA [D48Y] | -1.04 ± 0.19 |
| SKNWSEDDLQLLIKAVNLFPAGTNSRWEVIANYMNIHSSSGVKRTAKVVIGKA [D48V] | -0.759 ± 0.074 |
| SKNWSEDDLQLLIKAVNLFPAGTNSRWEVIANYMNIHSSSGVKRTAKPVIGKA [D48P] | -1.01 ± 0.12 |
| SKNWSEDDLQLLIKAVNLFPAGTNSRWEVIANYMNIHSSSGVKRTAKNVIGKA [D48N] | -0.623 ± 0.068 |
| SKNWSEDDLQLLIKAVNLFPAGTNSRWEVIANYMNIHSSSGVKRTAKHVIGKA [D48H] | -0.539 ± 0.1 |
